Broadly, the Kd is a measure of binding affinity in units of concentration. Read a high Kd as lower affinity.

Where a chain is given by its changes, count along the chain named. Read-outs that look alike come from different tables or passages of the source.

Assay in all cases: SPR (Biacore), antibody captured on chip, FcgR extracellular domain as analyte
(In general: SPR reads the build-up and loss of mass on a sensor chip optically.)

Assay [1] concerns the target T1, FcgRIa (human, UniProt P12314 16-292).
T1 construct: extracellular domain; Expressed in FreeStyle293 cells and purified; used as analyte in Biacore; also called FcγRIa; FcγRI; not shown: His tag attached to the C terminus

Assay [2] has as its target T2, FcgRIIa R (human, UniProt P12318 34-217).
T2 construct: extracellular domain; also called FcγRIIa R; FcγRIIa type R; not shown: His tag attached to the C terminus
T2 sequence (looked up): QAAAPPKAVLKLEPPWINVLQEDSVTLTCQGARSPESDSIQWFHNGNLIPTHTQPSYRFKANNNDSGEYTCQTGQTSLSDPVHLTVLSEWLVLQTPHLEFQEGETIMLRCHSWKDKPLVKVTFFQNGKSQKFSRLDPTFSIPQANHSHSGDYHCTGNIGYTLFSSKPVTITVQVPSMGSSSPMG

The target of assay [3] is T3, FcgRIIa H (human, UniProt P12318 34-217).
T3 construct: extracellular domain; also called FcγRIIa H; FcγRIIa type H; not shown: His tag attached to the C terminus
T3 sequence (looked up): T2 sequence (looked up) with R134H

Assay [4] concerns the target T4, FcgRIIb (human, UniProt P31994 43-217).
T4 construct: extracellular domain; Expressed in FreeStyle293 cells and purified; used as analyte in Biacore; also called FcγRIIb; CD32B; not shown: His tag attached to the C terminus
T4 sequence (looked up): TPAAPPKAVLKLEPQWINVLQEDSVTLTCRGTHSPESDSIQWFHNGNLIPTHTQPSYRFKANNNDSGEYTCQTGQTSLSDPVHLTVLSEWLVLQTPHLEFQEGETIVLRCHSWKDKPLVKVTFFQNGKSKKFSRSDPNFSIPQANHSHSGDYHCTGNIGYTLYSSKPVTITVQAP

Assay [5] deals with T5, FcgRIIIa F (human, UniProt P08637 17-208).
T5 construct: extracellular domain; also called FcγRIIIa F; not shown: His tag attached to the C terminus

Assay [6] addresses T6, FcgRIIIa V (human, UniProt P08637 17-208).
T6 construct: extracellular domain; also called FcγRIIIa V; not shown: His tag attached to the C terminus

Assay [7] addresses T1, FcgRIa. The source holds these as a separate data set.
Assay [8] concerns the target T3, FcgRIIa H. The source holds these as a separate data set.
Assay [9] concerns the target T4, FcgRIIb. The source holds these as a separate data set.
In assay [10] the target is T5, FcgRIIIa F. The source holds these as a separate data set.
Assay [11] deals with T6, FcgRIIIa V. This is another data set of the same source.
The target of assay [12] is T1, FcgRIa. The source holds these as a separate data set.
In assay [13] the target is T2, FcgRIIa R. The source holds these as a separate data set.
Assay [14] addresses T3, FcgRIIa H. This is another data set of the same source.
For assay [15], the target named is T4, FcgRIIb. This is another data set of the same source.
In assay [16] the target is T5, FcgRIIIa F. The source holds these as a separate data set.
Assay [17] concerns the target T6, FcgRIIIa V. This is another data set of the same source.

T6 sequence (P08637 17-208 F176V limits assumed): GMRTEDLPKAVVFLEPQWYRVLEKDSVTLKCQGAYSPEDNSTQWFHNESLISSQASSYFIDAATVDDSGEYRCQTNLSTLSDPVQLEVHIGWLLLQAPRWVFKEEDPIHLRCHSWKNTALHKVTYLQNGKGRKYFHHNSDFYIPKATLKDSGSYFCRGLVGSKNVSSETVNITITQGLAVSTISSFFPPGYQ
T5 sequence (P08637 17-208): as the sequence (P08637 17-208 F176V limits assumed) above, with V160F counted along it
T1 sequence (P12314 16-292): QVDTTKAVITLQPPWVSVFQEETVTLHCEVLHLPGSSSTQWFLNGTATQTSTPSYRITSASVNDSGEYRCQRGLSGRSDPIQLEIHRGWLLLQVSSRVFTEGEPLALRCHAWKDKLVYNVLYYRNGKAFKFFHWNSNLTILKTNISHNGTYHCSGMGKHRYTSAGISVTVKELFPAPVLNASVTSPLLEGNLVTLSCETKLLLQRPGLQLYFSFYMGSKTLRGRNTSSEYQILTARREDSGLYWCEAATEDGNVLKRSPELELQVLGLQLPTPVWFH

B1: H240-afucosyl_G1d/L73-k0 (antibody, human IgG1, kappa)
heavy: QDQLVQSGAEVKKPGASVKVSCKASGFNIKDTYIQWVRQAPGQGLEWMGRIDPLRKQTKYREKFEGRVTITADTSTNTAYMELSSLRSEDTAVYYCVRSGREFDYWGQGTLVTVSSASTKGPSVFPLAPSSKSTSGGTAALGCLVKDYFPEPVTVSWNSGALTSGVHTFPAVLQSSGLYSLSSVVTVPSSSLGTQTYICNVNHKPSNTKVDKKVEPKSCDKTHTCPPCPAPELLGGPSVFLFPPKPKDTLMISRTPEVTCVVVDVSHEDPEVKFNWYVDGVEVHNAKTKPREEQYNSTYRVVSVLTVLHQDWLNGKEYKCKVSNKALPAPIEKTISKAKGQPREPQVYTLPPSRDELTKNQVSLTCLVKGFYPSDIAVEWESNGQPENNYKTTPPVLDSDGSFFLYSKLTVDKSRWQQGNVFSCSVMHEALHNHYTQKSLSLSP
light: DIQMTQSPSSLSASVGDRVTITCRASQDIHKYIAWYQQKPGQAPRLLIQYTSTLQPGVPSRFSGSGSGTDYTFTISSLQPEDIATYYCLQYEQLRTFGGGTKVEIKRTVAAPSVFIFPPSDEQLKSGTASVVCLLNNFYPREAKVQWKVDNALQSGNSQESVTEQDSKDSTYSLSSTLTLSKADYEKHKVYACEVTHQGLSSPVTKSFNRGEC
modifications: fucose removed from the sugar chain (afucosylated); amino acid sequence same as H240-G1d
notes: Anti-EREG IgG1 obtained by afucosylating H240-G1d/L73-k0; also called afucosylated antibody
Take B1: the Kd with FcgRIa [1] is 0.00043 µM; in the assay with FcgRIIa R [2], 0.49 µM; in the assay with FcgRIIa H [3] it was 0.78 µM; in the assay with FcgRIIb [4], 2.6 µM; with FcgRIIIa F [5], 0.079 µM; with FcgRIIIa V [6] it was 0.0069 µM. Besides, the dissociation constant Kd with FcgRIa [7] is 0.00043 µM; with FcgRIIa H [8], 0.78 µM; in the assay with FcgRIIb [9], 2.6 µM; in the assay with FcgRIIIa F [10], 0.079 µM; with FcgRIIIa V [11], 0.0069 µM; with FcgRIa [12], 0.00043 µM. Also, the Kd in the assay with FcgRIIa R [13] turned out to be 0.49 µM; with FcgRIIa H [14] it was 0.78 µM; with FcgRIIb [15], 2.6 µM; in the assay with FcgRIIIa F [16], 0.079 µM; with FcgRIIIa V [17], 0.0069 µM.

These data come from patent US20180155451A1 (published 2018).
